Target: mouse hypoxia inducible factor-2 alpha (mouse, UniProt P97481 1-874)
Test: cell-based or functional assay

mouse hypoxia inducible factor-2 alpha, sequence (P97481 whole entry): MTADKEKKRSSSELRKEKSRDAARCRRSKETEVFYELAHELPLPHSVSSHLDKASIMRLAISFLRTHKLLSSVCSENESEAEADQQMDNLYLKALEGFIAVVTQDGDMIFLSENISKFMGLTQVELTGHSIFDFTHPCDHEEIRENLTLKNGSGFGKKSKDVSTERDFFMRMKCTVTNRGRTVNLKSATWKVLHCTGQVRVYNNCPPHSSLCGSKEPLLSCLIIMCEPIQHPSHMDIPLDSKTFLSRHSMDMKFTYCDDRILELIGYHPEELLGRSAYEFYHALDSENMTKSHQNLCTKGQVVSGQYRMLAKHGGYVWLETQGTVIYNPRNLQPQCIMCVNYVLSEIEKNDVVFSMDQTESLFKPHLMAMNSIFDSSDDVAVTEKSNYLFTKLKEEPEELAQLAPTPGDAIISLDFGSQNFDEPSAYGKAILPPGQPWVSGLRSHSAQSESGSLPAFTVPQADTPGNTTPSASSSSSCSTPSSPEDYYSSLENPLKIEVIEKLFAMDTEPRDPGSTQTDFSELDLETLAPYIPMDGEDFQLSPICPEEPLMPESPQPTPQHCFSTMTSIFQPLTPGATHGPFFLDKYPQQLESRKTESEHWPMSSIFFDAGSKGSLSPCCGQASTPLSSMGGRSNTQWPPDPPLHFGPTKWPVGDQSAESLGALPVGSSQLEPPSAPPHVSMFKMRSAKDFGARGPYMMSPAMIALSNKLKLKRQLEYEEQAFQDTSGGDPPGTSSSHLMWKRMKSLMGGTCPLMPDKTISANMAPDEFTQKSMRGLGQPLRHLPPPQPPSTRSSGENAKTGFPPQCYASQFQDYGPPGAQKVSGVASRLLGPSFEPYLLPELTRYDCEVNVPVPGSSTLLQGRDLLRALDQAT

activity of HIF-2 alpha on the hypoxia responsive reporter gene construct (equal amounts of each plasmid); activity of PH-2 relative to EGLN3: 2 fold less active than EGLN3
B1: human prolyl 4-hydroxylase PH-2 (enzyme)
chain: MAAAAVTGQRPETAAAEEASRPQWAPPDHCQAQAAAGLGDGEDAPVRPLCKPRGICSRAYFLVLMVFVHLYLGNVLALLLFVHYSNGDESSDPGPQHRAQGPGPEPTLGPLTRLEGIKVGHERKVQLVTDRDHFIRTLSLKPLLFEIPGFLTDEECRLIIHLAQMKGLQRSQILPTEEYEEAMSTMQVSQLDLFRLLDQNRDGHLQLREVLAQTRLGNGWWMTPESIQEMYAAIKADPDADGVLSLQEFSNMDLRDFHKYMRSHKAESSELVRNSHHTWLYQGEGAHHIMRAIRQRVLRLTRLSPEIVELSEPLQVVRYGEGGHYHAHVDSGPVYPETICSHTKLVANESVPFETSCRYMTVLFYLNNVTGGGETVFPVADNRTYDEMSLIQDDVDLRDTRRHCDKGNLRVKPQQGTAVFWYNYLPDGQGWVGDVDDYSLHGGCLVTRGTKWIANNWINVDPSRARQALFQQEMARLAREGGTDSQPEWALDRAYRDARVEL
